Laboratory results as given in patent publication US20030212001A1 (THERATECHNOLOGIES, published 2003).

Molecular target: R-14 protein (as present in the eye of newborn pigs)
Experiment: cell-based or functional assay

Binder	IC50, dose response on basal intraocular pressure (IOP) of piglet
IFDSTECW [peptide 1405]	342 nM
HIICSPLR [peptide 1402]	86.4 nM
